Assay results reported in publication PMC9636267 (Communications Biology, 2022).

Molecular target: T1, HCoV-229E S ectodomain (17–1115 aa), 229E S trimer (human coronavirus 229E, UniProt P15423 17-1115)
T1 sequence (looked up): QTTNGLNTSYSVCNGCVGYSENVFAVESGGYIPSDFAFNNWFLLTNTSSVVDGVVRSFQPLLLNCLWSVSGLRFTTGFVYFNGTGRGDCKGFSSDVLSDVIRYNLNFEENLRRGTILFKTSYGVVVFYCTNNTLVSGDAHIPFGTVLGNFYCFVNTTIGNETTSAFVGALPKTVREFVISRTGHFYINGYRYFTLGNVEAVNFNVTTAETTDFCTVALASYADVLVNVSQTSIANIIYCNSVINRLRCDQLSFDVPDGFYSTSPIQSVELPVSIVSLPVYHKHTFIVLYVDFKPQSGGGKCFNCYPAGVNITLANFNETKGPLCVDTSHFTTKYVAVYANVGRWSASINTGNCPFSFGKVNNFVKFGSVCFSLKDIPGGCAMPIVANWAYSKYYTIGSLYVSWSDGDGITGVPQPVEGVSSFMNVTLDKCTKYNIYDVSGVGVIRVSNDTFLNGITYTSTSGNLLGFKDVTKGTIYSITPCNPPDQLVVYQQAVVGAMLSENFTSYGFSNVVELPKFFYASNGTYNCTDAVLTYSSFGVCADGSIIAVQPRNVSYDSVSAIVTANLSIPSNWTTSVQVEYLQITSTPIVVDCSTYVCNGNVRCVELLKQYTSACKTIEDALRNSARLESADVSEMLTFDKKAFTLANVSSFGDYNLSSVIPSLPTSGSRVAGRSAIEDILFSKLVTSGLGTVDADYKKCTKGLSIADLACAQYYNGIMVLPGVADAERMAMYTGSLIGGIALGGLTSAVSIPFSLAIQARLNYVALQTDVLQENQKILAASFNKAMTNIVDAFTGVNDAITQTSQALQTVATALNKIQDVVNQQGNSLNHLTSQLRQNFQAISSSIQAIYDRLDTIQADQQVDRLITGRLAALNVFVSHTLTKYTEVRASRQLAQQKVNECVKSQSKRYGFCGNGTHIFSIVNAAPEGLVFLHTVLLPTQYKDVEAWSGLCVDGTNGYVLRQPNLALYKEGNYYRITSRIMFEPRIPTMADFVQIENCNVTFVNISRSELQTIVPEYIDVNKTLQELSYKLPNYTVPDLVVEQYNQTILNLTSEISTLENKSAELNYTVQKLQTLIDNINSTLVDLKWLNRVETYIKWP
Assay: SPR
Details: both partners purified

B1: human aminopeptidase N (hAPN), soluble ectodomain (66–967 aa) (receptor, UniProt P15144 66-967, looked up)
chain: DQSKAWNRYRLPNTLKPDSYRVTLRPYLTPNDRGLYVFKGSSTVRFTCKEATDVIIIHSKKLNYTLSQGHRVVLRGVGGSQPPDIDKTELVEPTEYLVVHLKGSLVKDSQYEMDSEFEGELADDLAGFYRSEYMEGNVRKVVATTQMQAADARKSFPCFDEPAMKAEFNITLIHPKDLTALSNMLPKGPSTPLPEDPNWNVTEFHTTPKMSTYLLAFIVSEFDYVEKQASNGVLIRIWARPSAIAAGHGDYALNVTGPILNFFAGHYDTPYPLPKSDQIGLPDFNAGAMENWGLVTYRENSLLFDPLSSSSSNKERVVTVIAHELAHQWFGNLVTIEWWNDLWLNEGFASYVEYLGADYAEPTWNLKDLMVLNDVYRVMAVDALASSHPLSTPASEINTPAQISELFDAISYSKGASVLRMLSSFLSEDVFKQGLASYLHTFAYQNTIYLNLWDHLQEAVNNRSIQLPTTVRDIMNRWTLQMGFPVITVDTSTGTLSQEHFLLDPDSNVTRPSEFNYVWIVPITSIRDGRQQQDYWLIDVRAQNDLFSTSGNEWVLLNLNVTGYYRVNYDEENWRKIQTQLQRDHSAIPVINRAQIINDAFNLASAHKVPVTLALNNTLFLIEERQYMPWEAALSSLSYFKLMFDRSEVYGPMKNYLKKQVTPLFIHFRNNTNNWREIPENLMDQYSEVNAISTACSNGVPECEEMVSGLFKQWMENPNNNPIHPNLRSTVYCNAIAQGGEEEWDFAWEQFRNATLVNEADKLRAALACSKELWILNRYLSYTLNPDLIRKQDATSTIISITNNVIGQGLVWDFVQSNWKKLFNDYGGGSFSFSNLIQAVTRRFSTEYELQQLEQFKKDNEETGFGSGTRALEQALEKTKANIKWVKENKEVVLQWFTENSK
notes: also called recombinant hAPN protein
Does B1 bind?
Result: binds
